Values quoted from earlier work in patent US6774099B1, “Dishwashing detergent compositions containing mixtures or crystallinity-disrupted surfactants” (The Procter & Gamble Company, priority 1999, dated 2004).

Details: enzymes compared at 0.075 to 2.5 mg protein per liter

B1: D96L: D96L lipolytic enzyme variant of the native lipase derived from Humicola lanuginosa (protein, UniProt O59952 23-291, looked up, variant D96L)
Lipase: EVSQDLFNQFNLFAQYSAAAYCGKNNDAPAGTNITCTGNACPEVEKADATFLYSFEDSGVGDVTGFLALDNTNKLIVLSFRGSRSIENWIGNLNFLLKEINDICSGCRGHDGFTSSWRSVADTLRQKVEDAVREHPDYRVVFTGHSLGGALATVAGADLRGNGYDIDVFSYGAPRVGNRAFAEFLTVQTGGTLYRITHTNDIVPRLPPREFGYSHSSPEYWIKSGTLVPVTRNDIVKIEGIDATGGNNQPNIPDIPAHLWYFGLIGTCL
  lard stain removal efficiency, factor over the wild-type lipase: 4.4
